B1: E3 ubiquitin-protein ligase LNX (Homo sapiens), Q8TBB1 (parent)
chain: MNQPESANDPEPLCAVCGQAHSLEENHFYSYPEEVDDDLICHICLQALLDPLDTPCGHTYCTLCLTNFLVEKDFCPMDRKPLVLQHCKKSSILVNKLLNKLLVTCPFREHCTQVLQRCDLEHHFQTSCKGASHYGLTKDRKRRSQDGCPDGCASLTATAPSPEVSAAATISLMTDEPGLDNPAYVSSAEDGQPAISPVDSGRSNRTRARPFERSTIRSRSFKKINRALSVLRRTKSGSAVANHADQGRENSENTTAPEVFPRLYHLIPDGEITSIKINRVDPSESLSIRLVGGSETPLVHIIIQHIYRDGVIARDGRLLPGDIILKVNGMDISNVPHNYAVRLLRQPCQVLWLTVMREQKFRSRNNGQAPDAYRPRDDSFHVILNKSSPEEQLGIKLVRKVDEPGVFIFNVLDGGVAYRHGQLEENDRVLAINGHDLRYGSPESAAHLIQASERRVHLVVSRQVRQRSPDIFQEAGWNSNGSWSPGPGERSNTPKPLHPTITCHEKVVNIQKDPGESLGMTVAGGASHREWDLPIYVISVEPGGVISRDGRIKTGDILLNVDGVELTEVSRSEAVALLKRTSSSIVLKALEVKEYEPQEDCSSPAALDSNHNMAPPSDWSPSWVMWLELPRCLYNCKDIVLRRNTAGSLGFCIVGGYEEYNGNKPFFIKSIVEGTPAYNDGRIRCGDILLAVNGRSTSGMIHACLARLLKELKGRITLTIVSWPGTFL
partner: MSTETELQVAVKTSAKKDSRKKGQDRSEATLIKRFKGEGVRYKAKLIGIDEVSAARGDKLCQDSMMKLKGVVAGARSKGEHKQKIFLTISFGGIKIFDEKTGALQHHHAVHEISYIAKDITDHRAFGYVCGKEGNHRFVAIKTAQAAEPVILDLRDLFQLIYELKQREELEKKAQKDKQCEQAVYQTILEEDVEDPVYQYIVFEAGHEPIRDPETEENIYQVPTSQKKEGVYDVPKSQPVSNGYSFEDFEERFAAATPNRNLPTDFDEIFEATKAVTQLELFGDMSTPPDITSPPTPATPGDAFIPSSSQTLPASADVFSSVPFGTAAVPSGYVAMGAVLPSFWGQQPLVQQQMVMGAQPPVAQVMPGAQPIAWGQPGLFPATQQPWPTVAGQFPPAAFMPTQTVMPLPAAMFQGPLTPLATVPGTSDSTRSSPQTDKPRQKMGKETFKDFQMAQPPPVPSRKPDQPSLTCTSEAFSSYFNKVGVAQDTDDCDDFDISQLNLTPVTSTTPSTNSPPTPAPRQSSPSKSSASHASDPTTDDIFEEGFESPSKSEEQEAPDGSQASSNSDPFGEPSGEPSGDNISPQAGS
B2: Nuclear receptor-interacting protein 1 (Homo sapiens), P48552 (parent)
chain: MTHGEELGSDVHQDSIVLTYLEGLLMHQAAGGSGTAVDKKSAGHNEEDQNFNISGSAFPTCQSNGPVLNTHTYQGSGMLHLKKARLLQSSEDWNAAKRKRLSDSIMNLNVKKEALLAGMVDSVPKGKQDSTLLASLLQSFSSRLQTVALSQQIRQSLKEQGYALSHDSLKVEKDLRCYGVASSHLKTLLKKSKVKDQKPDTNLPDVTKNLIRDRFAESPHHVGQSGTKVMSEPLSCAARLQAVASMVEKRASPATSPKPSVACSQLALLLSSEAHLQQYSREHALKTQNANQAASERLAAMARLQENGQKDVGSYQLPKGMSSHLNGQARTSSSKLMASKSSATVFQNPMGIIPSSPKNAGYKNSLERNNIKQAANNSLLLHLLKSQTIPKPMNGHSHSERGSIFEESSTPTTIDEYSDNNPSFTDDSSGDESSYSNCVPIDLSCKHRTEKSESDQPVSLDNFTQSLLNTWDPKVPDVDIKEDQDTSKNSKLNSHQKVTLLQLLLGHKNEENVEKNTSPQGVHNDVSKFNTQNYARTSVIESPSTNRTTPVSTPPLLTSSKAGSPINLSQHSLVIKWNSPPYVCSTQSEKLTNTASNHSMDLTKSKDPPGEKPAQNEGAQNSATFSASKLLQNLAQCGMQSSMSVEEQRPSKQLLTGNTDKPIGMIDRLNSPLLSNKTNAVEENKAFSSQPTGPEPGLSGSEIENLLERRTVLQLLLGNPNKGKSEKKEKTPLRDESTQEHSERALSEQILMVKIKSEPCDDLQIPNTNVHLSHDAKSAPFLGMAPAVQRSAPALPVSEDFKSEPVSPQDFSFSKNGLLSRLLRQNQDSYLADDSDRSHRNNEMALLESKNLCMVPKKRKLYTEPLENPFKKMKNNIVDAANNHSAPEVLYGSLLNQEELKFSRNDLEFKYPAGHGSASESEHRSWARESKSFNVLKQLLLSENCVRDLSPHRSNSVADSKKKGHKNNVTNSKPEFSISSLNGLMYSSTQPSSCMDNRTFSYPGVVKTPVSPTFPEHLGCAGSRPESGLLNGCSMPSEKGPIKWVITDAEKNEYEKDSPRLTKTNPILYYMLQKGGNSVTSRETQDKDIWREASSAESVSQVTAKEELLPTAETKASFFNLRSPYNSHMGNNASRPHSANGEVYGLLGSVLTIKKESE
partner: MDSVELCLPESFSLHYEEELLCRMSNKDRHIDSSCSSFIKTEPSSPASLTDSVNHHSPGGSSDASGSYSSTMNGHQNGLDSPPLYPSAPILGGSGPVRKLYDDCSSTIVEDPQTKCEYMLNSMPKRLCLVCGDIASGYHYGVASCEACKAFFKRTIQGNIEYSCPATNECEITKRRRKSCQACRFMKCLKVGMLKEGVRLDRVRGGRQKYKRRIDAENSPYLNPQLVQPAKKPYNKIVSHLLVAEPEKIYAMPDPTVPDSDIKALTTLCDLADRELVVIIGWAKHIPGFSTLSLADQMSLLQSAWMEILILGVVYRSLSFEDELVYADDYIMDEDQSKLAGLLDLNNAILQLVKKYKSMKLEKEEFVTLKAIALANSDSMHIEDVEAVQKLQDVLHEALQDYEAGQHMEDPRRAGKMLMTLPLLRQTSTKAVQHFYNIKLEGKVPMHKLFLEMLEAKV
B3: Nuclear protein AMMECR1 (Homo sapiens), Q9Y4X0 (parent)
chain: MAAGCCGVKKQKLSSSPPSGSGGGGGASSSSHCSGESQCRAGELGLGGAGTRLNGLGGLTGGGSGSGCTLSPPQGCGGGGGGIALSPPPSCGVGTLLSTPAAATSSSPSSSSAASSSSPGSRKMVVSAEMCCFCFDVLYCHLYGYQQPRTPRFTNEPYPLFVTWKIGRDKRLRGCIGTFSAMNLHSGLREYTLTSALKDSRFPPMTRDELPRLFCSVSLLTNFEDVCDYLDWEVGVHGIRIEFINEKGSKRTATYLPEVAKEQGWDHIQTIDSLLRKGGYKAPITNEFRKTIKLTRYRSEKMTLSYAEYLAHRQHHHFQNGIGHPLPPYNHYS
partner: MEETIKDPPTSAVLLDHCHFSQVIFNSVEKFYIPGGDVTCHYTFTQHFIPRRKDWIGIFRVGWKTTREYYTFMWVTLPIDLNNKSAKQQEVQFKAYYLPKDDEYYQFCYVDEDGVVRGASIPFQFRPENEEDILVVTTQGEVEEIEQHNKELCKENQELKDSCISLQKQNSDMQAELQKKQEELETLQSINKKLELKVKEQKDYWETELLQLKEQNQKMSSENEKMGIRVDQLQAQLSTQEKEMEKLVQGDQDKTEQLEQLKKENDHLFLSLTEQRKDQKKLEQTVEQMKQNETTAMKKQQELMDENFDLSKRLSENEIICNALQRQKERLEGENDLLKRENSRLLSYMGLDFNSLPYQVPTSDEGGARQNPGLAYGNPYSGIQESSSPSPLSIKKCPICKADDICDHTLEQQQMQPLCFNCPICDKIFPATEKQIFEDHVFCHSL
B4: Tuftelin-interacting protein 11 (Homo sapiens), Q9UBB9 (parent)
chain: MSLSHLYRDGEGRIDDDDDERENFEITDWDLQNEFNPNRQRHWQTKEEATYGVWAERDSDDERPSFGGKRARDYSAPVNFISAGLKKGAAEEAELEDSDDEEKPVKQDDFPKDFGPRKLKTGGNFKPSQKGFAGGTKSFMDFGSWERHTKGIGQKLLQKMGYVPGRGLGKNAQGIINPIEAKQRKGKGAVGAYGSERTTQSMQDFPVVDSEEEAEEEFQKELSQWRKDPSGSKKKPKYSYKTVEELKAKGRISKKLTAPQKELSQVKVIDMTGREQKVYYSYSQISHKHNVPDDGLPLQSQQLPQSGKEAKAPGFALPELEHNLQLLIDLTEQEIIQNDRQLQYERDMVVNLFHELEKMTEVLDHEERVISNLSKVLEMVEECERRMQPDCSNPLTLDECARIFETLQDKYYEEYRMSDRVDLAVAIVYPLMKEYFKEWDPLKDCTYGTEIISKWKSLLENDQLLSHGGQDLSADAFHRLIWEVWMPFVRNIVTQWQPRNCDPMVDFLDSWVHIIPVWILDNILDQLIFPKLQKEVENWNPLTDTVPIHSWIHPWLPLMQARLEPLYSPIRSKLSSALQKWHPSDSSAKLILQPWKDVFTPGSWEAFMVKNIVPKLGMCLGELVINPHQQHMDAFYWVIDWEGMISVSSLVGLLEKHFFPKWLQVLCSWLSNSPNYEEITKWYLGWKSMFSDQVLAHPSVKDKFNEALDIMNRAVSSNVGAYMQPGARENIAYLTHTERRKDFQYEAMQERREAENMAQRGIGVAASSVPMNFKDLIETKAEEHNIVFMPVIGKRHEGKQLYTFGRIVIYIDRGVVFVQGEKTWVPTSLQSLIDMAK
partner: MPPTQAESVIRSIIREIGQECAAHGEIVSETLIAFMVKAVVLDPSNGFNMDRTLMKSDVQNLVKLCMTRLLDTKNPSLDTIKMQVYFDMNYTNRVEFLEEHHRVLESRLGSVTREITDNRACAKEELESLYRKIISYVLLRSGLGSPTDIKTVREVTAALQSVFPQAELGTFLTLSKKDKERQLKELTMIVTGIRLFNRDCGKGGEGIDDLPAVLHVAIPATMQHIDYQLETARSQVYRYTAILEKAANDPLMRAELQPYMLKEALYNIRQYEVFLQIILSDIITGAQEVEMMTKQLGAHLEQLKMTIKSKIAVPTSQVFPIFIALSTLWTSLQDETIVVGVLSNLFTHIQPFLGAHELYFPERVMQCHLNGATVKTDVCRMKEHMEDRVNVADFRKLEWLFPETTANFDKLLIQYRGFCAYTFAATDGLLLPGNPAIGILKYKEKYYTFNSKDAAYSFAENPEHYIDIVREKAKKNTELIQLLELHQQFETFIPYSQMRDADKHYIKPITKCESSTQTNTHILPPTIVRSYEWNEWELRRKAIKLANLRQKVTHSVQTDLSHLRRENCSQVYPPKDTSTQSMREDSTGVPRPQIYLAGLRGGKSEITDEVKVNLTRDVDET
B5: Protein Tob1 (Homo sapiens), P50616 (parent)
chain: MQLEIQVALNFIISYLYNKLPRRRVNIFGEELERLLKKKYEGHWYPEKPYKGSGFRCIHIGEKVDPVIEQASKESGLDIDDVRGNLPQDLSVWIDPFEVSYQIGEKGPVKVLYVDDNNENGCELDKEIKNSFNPEAQVFMPISDPASSVSSSPSPPFGHSAAVSPTFMPRSTQPLTFTTATFAATKFGSTKMKNSGRSNKVARTSPINLGLNVNDLLKQKAISSSMHSLYGLGLGSQQQPQQQQQPAQPPPPPPPPQQQQQQKTSALSPNAKEFIFPNMQGQGSSTNGMFPGDSPLNLSPLQYSNAFDVFAAYGGLNEKSFVDGLNFSLNNMQYSNQQFQPVMAN

Variants of: B1
Details: with dab1_human DAB1, O75553

effect of a mutation on the interaction	Variant
with no effect	R342H

Variants of: B2
Details: with err3_human ESRRG

effect of a mutation on the interaction	Variant
with no effect	K385I

Variants of: B3
Details: with caco2_human CALCOCO2, Q13137

effect of a mutation on the interaction	Variant
disrupting interaction strength	R207G

Variants of: B4
Details: with cf206_human CFAP206, Q8IYR0

effect of a mutation on the interaction	Variant
with no effect	R8Q
with no effect	S688L

Variants of: B5
Details: with cnot7_human CNOT7, Q9UIV1
Sequence of cnot7_human CNOT7, Q9UIV1 (Q9UIV1 whole entry): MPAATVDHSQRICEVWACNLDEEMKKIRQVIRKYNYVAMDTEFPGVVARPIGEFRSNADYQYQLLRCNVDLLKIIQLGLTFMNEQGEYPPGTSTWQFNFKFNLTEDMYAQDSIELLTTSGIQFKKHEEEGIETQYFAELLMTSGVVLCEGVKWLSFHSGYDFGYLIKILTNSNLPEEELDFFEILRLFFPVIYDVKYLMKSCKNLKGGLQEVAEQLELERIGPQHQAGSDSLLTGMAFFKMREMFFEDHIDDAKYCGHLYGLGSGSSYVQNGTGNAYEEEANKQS

effect of a mutation on the interaction	Variant
with no effect	Y50N

Reference: IntAct's records for PubMed 31515488
